Source: patent publication US20110059889A1 (SYNTONIX PHARMACEUTICALS, published 2011)
Where two headings read alike, the source gives them in different places. Values belong to the binder of their own block, whether it stands above or below them. Numbered stars: 1 amine (or outer) side, 2 acyl side, 3 side chain; on linkers, the order of the positions; unused ones are H or OH. Bridge positions count the residues as written; N and C are the ends. Square brackets hold non-standard residues; d marks the D form. Ends that are not written are not given here. X2 = (3R)‑3‑amino‑1‑carboxymethyl‑valerolactam, O=C1[C@H](N[*:1])CCCN1CC(=O)[*:2]; X1 = 3‑amino‑2‑oxo‑1‑piperidine‑acetic acid, O=C1C(N[*:1])CCCN1CC(=O)[*:2]; NMeL = CN[C@@H](CC(C)C)C(=O)O; Pen = CC(C)(S)[C@H](N)C(=O)O; NMeA = CN[C@@H](C)C(=O)O; Sar = CNCC(=O)O

Key:
[1] = target: T1, soluble human FcRn (shFcRn) (human, UniProt P55899 24-297; P61769 21-119); experiment: IgG competition ELISA
T1 construct: Biotinylated for the ELISA, amine-coupled to a CM5 chip for SPR; also called biotinylated shFcRn
Description: (§1) The wells were coated with 100 μl/well of 1 μg/ml biotinylated-shFcRn in Buffer A. The plate was sealed and incubated at 37° C. for 2 hours. Afterwards, the plate was washed with 200 μl/well of Buffer B (Buffer B: 100 mM MES pH 6, 150 mM NaCl, 0.5% BSA IgG-free (Jackson ImmunoResearch, West Grove, Pa.), 0.05% Tween-20). […] To allow for mixing, the plate was rocked for 2 minutes, sealed and incubated at 37° C. for 2 hours. […] The plate was covered, incubated for 30 minutes at room temperature and washed 4 times with 200 μl/well of ice-cold buffer B. SureBlue TMB substrate solution (100 μl/well, KPL, Gaithersburg, Md.) was added and the plate was allowed to incubate at room temperature until color developed, which took 5 to 10 minutes. Once color developed, 100 μl/well of TMB stop solution (KPL, Gaithersburg, Md.) was added and the absorbance was measured at 450 nm. The data was plotted as absorbance vs. peptide concentration to derive the inhibitory concentration 50% (IC₅₀) values.

[2] = target: T1, soluble human FcRn (shFcRn); experiment: IgG competition ELISA; remark: listed apart in the source
Description: as §1

[3] = target: T1, soluble human FcRn (shFcRn); experiment: IgG competition ELISA; remark: listed apart in the source
Description: as §1

[4] = target: T1, soluble human FcRn (shFcRn); experiment: SPR pH 6
Description: (§2) The following steps were performed to cross-link soluble human or cynomolgus FcRn to the dextran surface of a CM5 sensor chip (Biacore AB, Uppsala, Sweden) by an amine coupling reaction involving 1-ethyl-(3-dimethylaminopropyl)-carbodiimide hydrochloride (EDC) (Biacore AB, Uppsala, Sweden) and N-hydroxysuccinimide (NHS) (Biacore AB, Uppsala, Sweden) as recommended by Biacore (BIAapplications Handbook, version AB, section 4.2, Biacore AB, Uppsala, Sweden). […] Residual sites on the FcRn flow cell were blocked with 1 M ethanolamine hydrochloride pH 8.5 (Biacore AB, Uppsala, Sweden). A control flow cell was blocked with ethanolamine for reference subtraction. For analysis of the monomeric peptides, FcRn was coated to a final density of 4000-5000 response units (RU). For analysis of the peptide dimers, FcRn was coated to a density of 2000-2500 RU. All SPR measurements were performed using a BIACORE 3000 Instrument (Biacore AB Uppsala, Sweden). For measurements done at either pH 6 or pH 7.4, experiments were performed in 50 mM phosphate, 100 mM sodium chloride, 0.01% surfactant P20 (Biacore AB, Uppsala, Sweden).
(§3) Ten, 2-fold dilutions of the peptide were injected over the FcRn-CM5 chip at a rate of 20 μl/min for 2 min. The peptide was dissociated from the chip for 2.5 minutes with buffer. Any remaining peptide was removed from the chip with a 30 second injection of HBS-P buffer (Biacore AB, Uppsala, Sweden) at a rate of 30 μl/min. Sensorgrams were generated and analyzed using BiaEval software version 3.1 (Biacore AB, Uppsala, Sweden). The equilibrium RU observed for each injection was plotted against concentration. The equilibrium KD values were derived by analysis of the plots using the steady state affinity model included in the BiaEval software.

[5] = target: T1, soluble human FcRn (shFcRn); experiment: IgG competition ELISA; remark: listed apart in the source
Description: as §1

[6] = target: T1, soluble human FcRn (shFcRn); experiment: SPR pH 6; remark: listed apart in the source
Description: as §2, §3

[7] = target: T1, soluble human FcRn (shFcRn); experiment: IgG competition ELISA; remark: listed apart in the source
Description: as §1

[8] = target: T1, soluble human FcRn (shFcRn); experiment: IgG competition ELISA; remark: listed apart in the source
Description: as §1

[9] = target: T1, soluble human FcRn (shFcRn); experiment: SPR pH 6; remark: listed apart in the source
Description: as §2, §3

[10] = target: T1, soluble human FcRn (shFcRn); experiment: SPR pH 6; remark: listed apart in the source
Description: as §2, §3

B2: Peptide No. 66 (peptide)
peptide: QRFCTGHFGGLXPCNGP
modifications: Pen 4; 2-pyridylAla 12 (printed 2-pvridylAla); disulfide 4-14; C-terminal amide
IC50 [2]: > 125000 nM

B5: Peptide No. 178 (peptide)
peptide: RF[Pen]TGHF[X1]LYPC-NH2
modifications: disulfide 3-12
IC50 [3]: 660 nM
Kd [4]: 160 nM

B6: Peptide No. 97 (peptide)
peptide: QRY[Pen]TGHFGGLYPCNGP-NH2
modifications: disulfide 4-14; N-terminus assumed
SMILES: CC(C)C[C@@H]1NC(=O)CNC(=O)CNC(=O)[C@H](Cc2ccccc2)NC(=O)[C@H](Cc2c[nH]cn2)NC(=O)CNC(=O)[C@H]([C@@H](C)O)NC(=O)[C@@H](NC(=O)[C@H](Cc2ccc(O)cc2)NC(=O)[C@H](CCCNC(=N)N)NC(=O)[C@@H](N)CCC(N)=O)C(C)(C)SSC[C@@H](C(=O)N[C@@H](CC(N)=O)C(=O)NCC(=O)N2CCC[C@H]2C(N)=O)NC(=O)[C@@H]2CCCN2C(=O)[C@H](Cc2ccc(O)cc2)NC1=O
IC50 [5]: 2400 nM

B7: Peptide No. 98 (peptide)
peptide: QRW[Pen]TGHFGGLYPCNGP-NH2
modifications: disulfide 4-14; N-terminus assumed
SMILES: CC(C)C[C@@H]1NC(=O)CNC(=O)CNC(=O)[C@H](Cc2ccccc2)NC(=O)[C@H](Cc2c[nH]cn2)NC(=O)CNC(=O)[C@H]([C@@H](C)O)NC(=O)[C@@H](NC(=O)[C@H](Cc2c[nH]c3ccccc23)NC(=O)[C@H](CCCNC(=N)N)NC(=O)[C@@H](N)CCC(N)=O)C(C)(C)SSC[C@@H](C(=O)N[C@@H](CC(N)=O)C(=O)NCC(=O)N2CCC[C@H]2C(N)=O)NC(=O)[C@@H]2CCCN2C(=O)[C@H](Cc2ccc(O)cc2)NC1=O
IC50 [5]: 1500 nM

B8: Peptide No. 101 (peptide)
peptide: QRF[Pen]TGHFGGIYPCNGP-NH2
modifications: disulfide 4-14; N-terminus assumed
SMILES: CC[C@H](C)[C@@H]1NC(=O)CNC(=O)CNC(=O)[C@H](Cc2ccccc2)NC(=O)[C@H](Cc2c[nH]cn2)NC(=O)CNC(=O)[C@H]([C@@H](C)O)NC(=O)[C@@H](NC(=O)[C@H](Cc2ccccc2)NC(=O)[C@H](CCCNC(=N)N)NC(=O)[C@@H](N)CCC(N)=O)C(C)(C)SSC[C@@H](C(=O)N[C@@H](CC(N)=O)C(=O)NCC(=O)N2CCC[C@H]2C(N)=O)NC(=O)[C@@H]2CCCN2C(=O)[C@H](Cc2ccc(O)cc2)NC1=O
Kd [6]: 340 nM
IC50 [7]: 3400 nM

B10: Peptide No. 115 (peptide)
peptide: QRF[Pen]TGHFGGFYPCNGP-NH2
modifications: disulfide 4-14; N-terminus assumed
SMILES: C[C@@H](O)[C@@H]1NC(=O)[C@@H](NC(=O)[C@H](Cc2ccccc2)NC(=O)[C@H](CCCNC(=N)N)NC(=O)[C@@H](N)CCC(N)=O)C(C)(C)SSC[C@@H](C(=O)N[C@@H](CC(N)=O)C(=O)NCC(=O)N2CCC[C@H]2C(N)=O)NC(=O)[C@@H]2CCCN2C(=O)[C@H](Cc2ccc(O)cc2)NC(=O)[C@H](Cc2ccccc2)NC(=O)CNC(=O)CNC(=O)[C@H](Cc2ccccc2)NC(=O)[C@H](Cc2c[nH]cn2)NC(=O)CNC1=O
Kd [6]: 400 nM
IC50 [7]: 4100 nM

B12: Peptide No. 201 (peptide)
peptide: QRF[Pen]TGHFGGLYPCNGP-NH2
modifications: disulfide 4-14; also: N-terminally linked homodimer via ethylene glycol-bis(succinic acid) linker
notes: N-terminally linked dimer
IC50 [1]: 26 nM

B13: Peptide No. 205 (peptide)
peptide: RFCTGHFXLYPC
modifications: not fully specified; Pen 3; X 8 = 3(S)-2-amino-2-oxo-1-azepine acetic acid (so in the source) in place of Gly-Gly; disulfide 3-12; C-terminal amide
IC50 [3]: 640 nM
Kd [4]: 103 nM

B14: Peptide No. 112 (peptide)
peptide: QRF[Pen]TGHFG[Sar]LYPCNGP-NH2
modifications: disulfide 4-14; N-terminus assumed
SMILES: CC(C)C[C@@H]1NC(=O)CN(C)C(=O)CNC(=O)[C@H](Cc2ccccc2)NC(=O)[C@H](Cc2c[nH]cn2)NC(=O)CNC(=O)[C@H]([C@@H](C)O)NC(=O)[C@@H](NC(=O)[C@H](Cc2ccccc2)NC(=O)[C@H](CCCNC(=N)N)NC(=O)[C@@H](N)CCC(N)=O)C(C)(C)SSC[C@@H](C(=O)N[C@@H](CC(N)=O)C(=O)NCC(=O)N2CCC[C@H]2C(N)=O)NC(=O)[C@@H]2CCCN2C(=O)[C@H](Cc2ccc(O)cc2)NC1=O
IC50 [8]: 900 nM

B15: Peptide No. 235 (peptide)
peptide: RF[Pen]TGHFG[Sar][NMeL]YPC-NH2
modifications: disulfide 3-13; N-terminus assumed
SMILES: CC(C)C[C@H]1C(=O)N[C@@H](Cc2ccc(O)cc2)C(=O)N2CCC[C@H]2C(=O)N[C@H](C(N)=O)CSSC(C)(C)[C@H](NC(=O)[C@H](Cc2ccccc2)NC(=O)[C@@H](N)CCCNC(=N)N)C(=O)N[C@@H]([C@@H](C)O)C(=O)NCC(=O)N[C@@H](Cc2c[nH]cn2)C(=O)N[C@@H](Cc2ccccc2)C(=O)NCC(=O)N(C)CC(=O)N1C
Kd [9]: 31 nM
Kd [10]: 31 nM

B17: Peptide No. 179 (peptide)
peptide: RF[Pen]TGHF[X1]LYPC-NH2
modifications: disulfide 3-12
IC50 [3]: 7200 nM
Kd [4]: 670 nM

B18: Peptide No. 111 (peptide)
peptide: QRF[Pen]TGHF[Sar]GLYPCNGP-NH2
modifications: disulfide 4-14; N-terminus assumed
SMILES: CC(C)C[C@@H]1NC(=O)CNC(=O)CN(C)C(=O)[C@H](Cc2ccccc2)NC(=O)[C@H](Cc2c[nH]cn2)NC(=O)CNC(=O)[C@H]([C@@H](C)O)NC(=O)[C@@H](NC(=O)[C@H](Cc2ccccc2)NC(=O)[C@H](CCCNC(=N)N)NC(=O)[C@@H](N)CCC(N)=O)C(C)(C)SSC[C@@H](C(=O)N[C@@H](CC(N)=O)C(=O)NCC(=O)N2CCC[C@H]2C(N)=O)NC(=O)[C@@H]2CCCN2C(=O)[C@H](Cc2ccc(O)cc2)NC1=O
Kd [10]: 2000 nM

Continued, values first:

IC50 [1]: 25 nM
B1: Peptide No. 280 (peptide)
peptide: RFCTGHFGGLYPC
modifications: Pen 3; Sar 9; NMeLeu 10; disulfide 3-13 within each chain; C-termini joined through the two amino groups of a branching Lys
notes: C-terminally linked dimer; drawing CHEM-US-00124

IC50 [3]: 2300 nM
Kd [4]: 280 nM
B3: Peptide No. 214 (peptide)
peptide: RFCTGHFXLYPC
modifications: not fully specified; Pen 3; X 8 = 3(S)-3-amino-2-oxo-1-pyrrolidine acetic acid in place of Gly-Gly; disulfide 3-12; C-terminal amide

IC50 [3]: 1100 nM
Kd [4]: 145 nM
B4: Peptide No. 228 (peptide)
peptide: RF[Pen][NMeA]GHF[X2][NMeL]YPC-NH2
modifications: disulfide 3-12; N-terminus assumed
SMILES: CC(C)C[C@H]1C(=O)N[C@@H](Cc2ccc(O)cc2)C(=O)N2CCC[C@H]2C(=O)N[C@H](C(N)=O)CSSC(C)(C)[C@H](NC(=O)[C@H](Cc2ccccc2)NC(=O)[C@@H](N)CCCNC(=N)N)C(=O)N(C)[C@@H](C)C(=O)NCC(=O)N[C@@H](Cc2c[nH]cn2)C(=O)N[C@@H](Cc2ccccc2)C(=O)N[C@@H]2CCCN(CC(=O)N1C)C2=O

IC50 [7]: 1000 nM
B9: Peptide No. 238 (peptide)
peptide: QRF[Pen]TGHFG[Sar]WYPCNGP-NH2
modifications: disulfide 4-14; N-terminus assumed
SMILES: C[C@@H](O)[C@@H]1NC(=O)[C@@H](NC(=O)[C@H](Cc2ccccc2)NC(=O)[C@H](CCCNC(=N)N)NC(=O)[C@@H](N)CCC(N)=O)C(C)(C)SSC[C@@H](C(=O)N[C@@H](CC(N)=O)C(=O)NCC(=O)N2CCC[C@H]2C(N)=O)NC(=O)[C@@H]2CCCN2C(=O)[C@H](Cc2ccc(O)cc2)NC(=O)[C@H](Cc2c[nH]c3ccccc23)NC(=O)CN(C)C(=O)CNC(=O)[C@H](Cc2ccccc2)NC(=O)[C@H](Cc2c[nH]cn2)NC(=O)CNC1=O

IC50 [1]: 20 nM
B11: Peptide No. 287 (peptide)
peptide: RF[Pen]TGHFG[Sar][NMeL]YPCG
modifications: disulfide 3-13; also: dimer: C-termini joined through a branching Lys
notes: C-terminally linked dimer; drawing CHEM-US-00131

Kd [6]: 140 nM
IC50 [7]: 2800 nM
B16: Peptide No. 237 (peptide)
peptide: RF[Pen]TGHFGGWYPC-NH2
modifications: disulfide 3-13; N-terminus assumed
SMILES: C[C@@H](O)[C@@H]1NC(=O)[C@@H](NC(=O)[C@H](Cc2ccccc2)NC(=O)[C@@H](N)CCCNC(=N)N)C(C)(C)SSC[C@@H](C(N)=O)NC(=O)[C@@H]2CCCN2C(=O)[C@H](Cc2ccc(O)cc2)NC(=O)[C@H](Cc2c[nH]c3ccccc23)NC(=O)CNC(=O)CNC(=O)[C@H](Cc2ccccc2)NC(=O)[C@H](Cc2c[nH]cn2)NC(=O)CNC1=O

IC50 [1]: 7 nM
B19: Peptide No. 279 (peptide)
peptide: RF[Pen]TGHFG[Sar][NMeL]YPC-NH2
modifications: disulfide 3-13; also: dimer: N-termini joined by Bis-dPEG6 diacid linker
notes: N-terminally linked dimer; drawing CHEM-US-00123

IC50 [1]: 16 nM
B20: Peptide No. 288 (peptide)
peptide: RF[Pen]TGHFG[Sar][NMeL]YPCGG
modifications: disulfide 3-13; also: dimer: C-termini joined through a branching Lys
notes: C-terminally linked dimer; drawing CHEM-US-00132
